Experimental data reported in patent US20200291391A1, “CROSS-LINKED EPITOPES AND METHODS OF USE THEREOF” (Indi Molecular, Inc., priority 2019, published 2020).
pEC50: −log10 of the molar value.

Key:
[1] = target: CD8 on CD8+ SupT1 cells (human) (UniProt P01732); assay: flow cytometry on CD8+ SupT1 cells; ligand at 0.05 µM
[2] = target: CD8 on CD8+ SupT1 cells (human) (UniProt P01732); assay: flow cytometry on CD8+ SupT1 cells
[3] = target: CD8 on CD8+ SupT1 cells (human) (UniProt P01732); assay: flow cytometry on CD8+ SupT1 cells; ligand at 1.3 µM
[4] = target: CD8 on CD8+ SupT1 cells (human) (UniProt P01732); assay: flow cytometry on CD8+ SupT1 cells; ligand at 4 µM
[5] = target: CD8 on CD8+ SupT1 cells (human) (UniProt P01732); assay: flow cytometry on CD8+ SupT1 cells; ligand at 0.15 µM
[6] = target: CD8 on CD8+ SupT1 cells (human) (UniProt P01732); assay: flow cytometry on CD8+ SupT1 cells; ligand at 4 µM, 4° C.
[7] = target: CD8 on CD8+ SupT1 cells (human) (UniProt P01732); assay: flow cytometry on CD8+ SupT1 cells; ligand at 4 µM, room temperature
[8] = target: CD8 on CD8+ SupT1 cells (human) (UniProt P01732); assay: flow cytometry on CD8+ SupT1 cells; ligand at 0.4 µM
[9] = target: immobilized recombinant CD8 protein (UniProt P01732); assay: solid-phase ELISA on immobilized recombinant CD8 protein
[10] = target: CD8 on CD8+ SupT1 cells (human) (UniProt P01732); assay: flow cytometry on CD8+ SupT1 cells; remark: listed apart in the source

CD8 on CD8+ SupT1 cells (human), sequence (P01732 22-235): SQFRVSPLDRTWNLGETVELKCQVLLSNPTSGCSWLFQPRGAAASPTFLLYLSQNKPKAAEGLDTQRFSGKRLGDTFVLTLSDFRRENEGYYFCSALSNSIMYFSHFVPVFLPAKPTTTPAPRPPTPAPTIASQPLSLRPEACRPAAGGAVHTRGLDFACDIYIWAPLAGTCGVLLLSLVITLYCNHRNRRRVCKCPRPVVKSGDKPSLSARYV

Row | Substance | MFIR (Mean Fluorescence Intensity Ratio) (ratio relative to unstained) [2] | MFIR (Mean Fluorescence Intensity Ratio) (ratio relative to Biotin1k-PEG) [2] | further results
1 | Biotin-1kPEG-vlyrr (SEQ ID NO: 30) (peptide) | – | 2 | pEC50 [9]: 7.11
2 | Biotin-1kPEG-rpyay (SEQ ID NO: 35) (peptide) | – | 1 | –
3 | Biotin anti-CD8a Ab (Clone RPA-T8) (antibody) | 73.9 | – | MFIR (Mean Fluorescence Intensity Ratio) (ratio relative to unstained) [10]: 86.6
4 | Biotin-1kPEG-yfrsr (SEQ ID NO: 33) (peptide) | – | 1.1 | –
5 | Biotin-1kPEG-nfyrr (SEQ ID NO: 32) (peptide) | – | 1.2 | pEC50 [9]: 7.33

The next lines start with results.

Row | MFIR (Mean Fluorescence Intensity Ratio) (ratio relative to unstained) [2] | MFIR (Mean Fluorescence Intensity Ratio) (ratio relative to Biotin1k-PEG) [2] | Substance | further results
6 | 1.8 | – | Biotin-1kPEG-cy(tfpkk) (SEQ ID NO: 21) (peptide) | MFIR (Mean Fluorescence Intensity Ratio) (ratio relative to unstained) [1]: 1; MFIR (Mean Fluorescence Intensity Ratio) (ratio relative to unstained) [3]: 1.1; MFIR (Mean Fluorescence Intensity Ratio) (ratio relative to unstained) [4]: 1.5; MFIR (Mean Fluorescence Intensity Ratio) (ratio relative to unstained) [5]: 1; MFIR (Mean Fluorescence Intensity Ratio) (ratio relative to unstained) [6]: 1.5; MFIR (Mean Fluorescence Intensity Ratio) (ratio relative to unstained) [7]: 1.5; MFIR (Mean Fluorescence Intensity Ratio) (ratio relative to unstained) [8]: 1.1
7 | 1.6 | – | Biotin-1kPEG-cy(krsah) (SEQ ID NO: 27) (peptide) | –
8 | – | 1.1 | Biotin-1kPEG-aykfn (SEQ ID NO: 36) (peptide) | –
9 | – | 1.1 | Biotin-1kPEG-rftaf (SEQ ID NO: 37) (peptide) | –
10 | 1.1 | – | Biotin-1kPEG-cy(snprk) (SEQ ID NO: 28) (peptide) | –
11 | – | 1.1 | Biotin-1kPEG-yrpfy (SEQ ID NO: 31) (peptide) | –
12 | – | 1 | Biotin-1kPEG-yrsny (SEQ ID NO: 34) (peptide) | –
